The chains are these.
B1: His6-myc-tagged wild-type eIF2Bα [human] / myc-tagged eIF2Bβ [not stated] (parent)
chain 1: MDDKELIEYFKSQMKEDPDMASAVAAIRTLLEFLKRDKGETIQGLRANLTSAIETLCGVDSSVAVSSGGELFLRFISLASLEYSDYSKCKKIMIERGELFLRRISLSRNKIADLCHTFIKDGATILTHAYSRVVLRVLEAAVAAKKRFSVYVTESQPDLSGKKMAKALCHLNVPVTVVLDAAVGYIMEKADLVIVGAEGVVENGGIINKIGTNQMAVCAKAQNKPFYVVAESFKFVRLFPLNQQDVPDKFKYKADTLKVAQTGQDLKEEHPWVDYTAPSLITLLFTDLGVLTPSAVSDELIKLYL
chain 2: MPGSAAKGSELSERIESFVETLKRGGGPRSSEEMARETLGLLRQIITDHRWSNAGELMELIRREGRRMTAAQPSETTVGNMVRRVLKIIREEYGRLHGRSDESDQQESLHKLLTSGGLNEDFSFHYAQLQSNIIEAINELLVELEGTMENIAAQALEHIHSNEVIMTIGFSRTVEAFLKEAARKRKFHVIVAECAPFCQGHEMAVNLSKAGIETTVMTDAAIFAVMSRVNKVIIGTKTILANGALRAVTGTHTLALAAKHHSTPLIVCAPMFKLSPQFPNEEDSFHKFVAPEEVLPFTEGDILEKVSVHCPVFDYVPPELITLFISNIGGNAPSYIYRLMSELYHPDDHVL
B2: His6-myc-tagged wild-type eIF2Bα [human] / myc-tagged eIF2Bγ [not stated] (parent)
chain 1: B1 chain 1
chain 2: MEFQAVVMAVGGGSRMTDLTSSIPKPLLPVGNKPLIWYPLNLLERVGFEEVIVVTTRDVQKALCAEFKMKMKPDIVCIPDDADMGTADSLRYIYPKLKTDVLVLSCDLITDVALHEVVDLFRAYDASLAMLMRKGQDSIEPVPGQKGKKKAVEQRDFIGVDSTGKRLLFMANEADLDEELVIKGSILQKHPRIRFHTGLVDAHLYCLKKYIVDFLMENGSITSIRSELIPYLVRKQFSSASSQQGQEEKEEDLKKKELKSLDIYSFIKEANTLNLAPYDACWNACRGDRWEDLSRSQVRCYVHIMKEGLCSRVSTLGLYMEANRQVPKLLSALCPEEPPVHSSAQIVSKHLVGVDSLIGPETQIGEKSSIKRSVIGSSCLIKDRVTITNCLLMNSVTVEEGSNIQGSVICNNAVIEKGADIKDCLIGSGQRIEAKAKRVNEVIVGNDQLMEI

In the first assay the parent is B1. Briefly: Ni2+ agarose affinity purification (pull-down), western blot for myc tag, quantified. Conditions: with myc-tagged eIF2Bβ; HEK293 cell lysates; 3 independent experiments; read off a plot.
In the case of chain 1 MDDKELIEYFKSQMKEDPDMASAVAAIRTLLEFLKRDKGETIQGLRANLTSAIETLCGVDSSVAVSSGGELFLRFISLASLEYSDYSKCKKIMIERGELFLRRISLSRNKIADLCHTFIKDGATILTHAYSRVVLRVLEAAVAAKKRFSVYVTESQPDLSGKKMAKALCHLNVPVTVVLDAAVGYIMEKADLVIVGAEGVVENGGIIYKIGTNQMAVCAKAQNKPFYVVAESFKFVRLFPLNQQDVPDKFKYKADTLKVAQTGQDLKEEHPWVDYTAPSLITLLFTDLGVLTPSAVSDELIKLYL [chain 1 N208Y], the ratio to parent was 1. The same measure, in the same setting: the result for chain 1 MDDKELIEYFKSQMKEDPDMASAVAAIRTLLEFLKRDKGETIQGLRANLTSAIETLCGVDSSVAVSSGGELFLRFISLASLEYSDYSKCKKIMIERGELFLRRISLSRNKIADLCHTFIKDGATILTHAYSRVVLRVLEAAVAAKKRFSVYVTESQPDLSGKKMAKALCHLNVPVTVVLDAAVGYIMEKADLVIVGAEGVVENGGIINKIGTNQMAVCAKAQNKPFYVVAESFKFVRLFPLNQQDVPDKFKYKADTLKVAQTGQDLKEEHPWVDYTARSLITLLFTDLGVLTPSAVSDELIKLYL [chain 1 P278R] reads 0.66.

The next assay covers variants of B2. The assay is described as above. Conditions: with myc-tagged eIF2Bγ; HEK293 cell lysates; 3 independent experiments; read off a plot.
chain 1 MDDKELIEYFKSQMKEDPDMASAVAAIRTLLEFLKRDKGETIQGLRANLTSAIETLCGVDSSVAVSSGGELFLRFISLASLEYSDYSKCKKIMIERGELFLRRISLSRNKIADLCHTFIKDGATILTHAYSRVVLRVLEAAVAAKKRFSVYVTESQPDLSGKKMAKALCHLNVPVTVVLDAAVGYIMEKADLVIVGAEGVVENGGIINKIGTNQMAVCAKAQNKPFYVVAESFKFVRLFPLNQQDVPDKFKYKADTLKVAQTGQDLKEEHPWVDYTARSLITLLFTDLGVLTPSAVSDELIKLYL [chain 1 P278R]: the ratio to parent stood at 0.95.

For the variant chain 1 MDDKELIEYFKSQMKEDPDMASAVAAIRTLLEFLKRDKGETIQGLRANLTSAIETLCGVDSSVAVSSGGELFLRFISLASLEYSDYSKCKKIMIERGELFLRRISLSRNKIADLCHTFIKDGATILTHAYSRVVLRVLEAAVAAKKRFSVYVTESQPDLSGKKMAKALCHLNVPVTVVLDAAVGYIMEKADLVIVGAEGVVENGGIIYKIGTNQMAVCAKAQNKPFYVVAESFKFVRLFPLNQQDVPDKFKYKADTLKVAQTGQDLKEEHPWVDYTAPSLITLLFTDLGVLTPSAVSDELIKLYL [chain 1 N208Y], the ratio to parent came to 1.2.

The record behind these values is paper PMC4593227, “Biochemical effects of mutations in the gene encoding the alpha subunit of eukaryotic initiation factor (eIF) 2B associated with Vanishing White Matter disease” (BMC Medical Genetics, 2015).
